The values that follow come from article PMC3554631, “Structural Basis of a Histone H3 Lysine 4 Demethylase Required for Stem Elongation in Rice” (PLoS Genetics, 2013).

What all share (assay type): cell-based
Common to all, as to conditions: mutant expressed transiently in tobacco cells, immunostaining of nuclei, at least 30 nuclei per transfection

For one experiment, the system named is H3K4me1. The experiment in a line: H3K4 demethylation assay in tobacco cells of JMJ703 substitution mutants, H3K4me1. As for the experimental part:
(§1) The cDNA fragment of the J3NCZ region was amplified using primers FAJ3NCZ-F and FAJ3NCZ-R and then cloned into pFA121 vector modified from pBI121 (GenBank: AF485783.1), in which GUS was replaced by 2×FLAG∶2×HA tag. The pFA121-J3NCZ plasmid was transferred into Agrobacterium tumefaciens strain EHA105 cells for tobacco infection with the help of Agrobacterium cells harboring P19 plasmids. For in vivo histone demethylation assay, tobacco infection and nuclei isolation were performed as previously described. The immunostaining protocol was modified from http://sites.bio.indiana.edu/~pikaardlab. Briefly, the nucleus solution was placed on a poly-lysine coated slide, air dried, and then refixed with 4% formaldehyde in KPBS (1.28 M NaCl, 20 mM KCl, 80 mM Na2HPO4, 20 mM KH2PO4, pH7.2) containing 1% Triton X-100 for 20 min. After 3 washes with KPBS-1% Triton, slides were blocked with blocking solution (1% BSA in KPBS-1% Triton) and incubated at 37°C for 30 min. The blocking solution was washed off with KPBS-1% Triton and the slides were incubated with both anti-HA and histone méthylation specific antibodies diluted in blocking solution to 1∶300 at 4°C overnight. After washing with KPBS, slides were blocked and incubated with fluorescent-labeled antibodies at 37°C for 2 h. After washing with KPBS thrice, nuclei were stained with 5 µg/mL 4,6-diamidino-2-phenylindole (DAPI), coated with a drop of VECTASHIELD Mounting Medium (H-1000, Vector Laboratories), and then covered with a coverslip followed by confocal microscope (Leica) detection. In vitro histone demethylation assays were performed as previously described. FA-J3NCZ was purified after overexpression with Anti-FLAG M2 magnetic beads according the manufacturer's instruction (Sigma).
(§2) Supplementary file pgen.1003239.s006.tif: Figure S6 Demethylation assays for JMJ703 substitution mutants that have been produced based on the structural data. The mutant names are labeled at the top left corner of each panel. Image panels from left to right are staining by DAPI, anti-HA and anti-methylated histones, respectively. Bar = 10 µm. At least 30 nuclei that expressed JMJ703 per transfection were observed and imaged. (TIF) Click here for additional data file.

Another experiment deals with H3K4me3. Put plainly: H3K4 demethylation assay in tobacco cells of JMJ703 substitution mutants, H3K4me3. Here is the method: as §1, §2
The subject of a further experiment is H3K4me2. The experiment in a line: H3K4 demethylation assay in tobacco cells of JMJ703 substitution mutants, H3K4me2. As for the experimental part: as §1, §2

B1: L447A: JMJ703 substitution mutant, residue conserved in H3K4 demethylases (protein, UniProt Q53WJ1 1-1238, looked up, variant L447A)
Lysine-specific demethylase …: MMGVTTTLNEDTEPSIPPGFGPFATLPLWGIHNDAKPAVTHSTPVQALQSIRKDSEECQPSAAVSRSDTPCSTSGTQTCRKSLRNRPPIDYSRFEHISDEDSDVEIVEKDVSSTRRRQQLPKGVLRGCAECSDCQKVIAKWNPAGARRPVLDEAPVFYPTEEEFEDTLKYIESIRPMAEPYGICRIVPPSSWKPPCLLKDKSIWEGSKFSTRVQKVDKLQNRKSSKKGRRGGMMKRRKLAESEENSATAHTQTGMQQSPERFGFEPGPEFTLQTFQKYADDFSKQYFRKDTSMDSVPSVEDIEGEYWRIVEVPTEEIEVIYGADLETGTFGSGFPKLSPETKSDAEDKYAQSGWNLNNLPRLQGSVLSFEGGDISGVLVPWVYVGMCFSSFCWHVEDHHLYSLNYMHWGAPKLWYGVPGKDAVNLESAMRKHLPELFEEQPDLLHNAVTQFSPSLLKSEGVHVYRCVQHEGEFVLTFPRAYHAGFNCGFNCAEAVNVAPIDWLPIGHNAVELYREQARKITISHDKLLLGAAREAIRAQWDILFLKRNTADNMRWKSICGADSTIFKALKARIETELVQRKTLGVPAQSRKMDAEFDSIDRECALCYYDLHLSASGCPCCPEKYACLVHAKQLCSCDWDKRFFLFRYDVNELNILADALGGKLSAIHRWGVSDLGLSLSSCVKREKVQDSKTVRRLTDGPRRSYMSQASAVSLVSSSTSNEQKDEGNKIMKIASPQTNNVCPSVEQRKSENISPLKEPCVRNELSCTTNSDSNGLQYNGGLGGHKGSAPGLPVSSSPSFSSNVATRPISTSSVSMKIVQGLVASKSCIQASSRTGDSRSLLGEHHNRSPAMIHDGTNMKSSLESSNNSCRLIASDYNATPCHSSKDQVLVTPGTNASVVTLKDSSQVHSASSQQFVRTGPWTQSASHEASSPSTSALKPSLDPPAMKNLYGGFTQGSAHPGPPSFSNQQPNDGRLQRTSESLPGVEARARGHPTVTAQPALEIHSRNGGAQKGPRIANVVHRFKCSVEPLEIGVVLSGRLWSSSQAIFPKGFRSRVKYFSIVDPIQMAYYISEILDAGMQGPLFMVKLENCPGEVFINLSPTKCWNMVRERLNMEIRRQLNMGKSNLPTLQPPGSVDGLEMFGLLSPPIVQAIWARDRDHICTEYWRSRPHVLIEDPNNRHMLSQGPPLLALRGLIQRANRDELQVLRSLMTNSNNLDDSSRQQAAHIIEEEIAKQLC
B1: the H3K4me1 demethylation activity result in the experiment on H3K4me1 is on record as “no”. Further, the H3K4me3 demethylation activity entry in the experiment on H3K4me3 was “no”. The H3K4me2 demethylation activity result in the experiment on H3K4me2 is given as “no”.

B2: A494S: JMJ703 substitution mutant, methylation state-specificity residue (protein, UniProt Q53WJ1 1-1238, looked up, variant A494S)
Lysine-specific demethylase …: MMGVTTTLNEDTEPSIPPGFGPFATLPLWGIHNDAKPAVTHSTPVQALQSIRKDSEECQPSAAVSRSDTPCSTSGTQTCRKSLRNRPPIDYSRFEHISDEDSDVEIVEKDVSSTRRRQQLPKGVLRGCAECSDCQKVIAKWNPAGARRPVLDEAPVFYPTEEEFEDTLKYIESIRPMAEPYGICRIVPPSSWKPPCLLKDKSIWEGSKFSTRVQKVDKLQNRKSSKKGRRGGMMKRRKLAESEENSATAHTQTGMQQSPERFGFEPGPEFTLQTFQKYADDFSKQYFRKDTSMDSVPSVEDIEGEYWRIVEVPTEEIEVIYGADLETGTFGSGFPKLSPETKSDAEDKYAQSGWNLNNLPRLQGSVLSFEGGDISGVLVPWVYVGMCFSSFCWHVEDHHLYSLNYMHWGAPKLWYGVPGKDAVNLESAMRKHLPELFEEQPDLLHNLVTQFSPSLLKSEGVHVYRCVQHEGEFVLTFPRAYHAGFNCGFNCAESVNVAPIDWLPIGHNAVELYREQARKITISHDKLLLGAAREAIRAQWDILFLKRNTADNMRWKSICGADSTIFKALKARIETELVQRKTLGVPAQSRKMDAEFDSIDRECALCYYDLHLSASGCPCCPEKYACLVHAKQLCSCDWDKRFFLFRYDVNELNILADALGGKLSAIHRWGVSDLGLSLSSCVKREKVQDSKTVRRLTDGPRRSYMSQASAVSLVSSSTSNEQKDEGNKIMKIASPQTNNVCPSVEQRKSENISPLKEPCVRNELSCTTNSDSNGLQYNGGLGGHKGSAPGLPVSSSPSFSSNVATRPISTSSVSMKIVQGLVASKSCIQASSRTGDSRSLLGEHHNRSPAMIHDGTNMKSSLESSNNSCRLIASDYNATPCHSSKDQVLVTPGTNASVVTLKDSSQVHSASSQQFVRTGPWTQSASHEASSPSTSALKPSLDPPAMKNLYGGFTQGSAHPGPPSFSNQQPNDGRLQRTSESLPGVEARARGHPTVTAQPALEIHSRNGGAQKGPRIANVVHRFKCSVEPLEIGVVLSGRLWSSSQAIFPKGFRSRVKYFSIVDPIQMAYYISEILDAGMQGPLFMVKLENCPGEVFINLSPTKCWNMVRERLNMEIRRQLNMGKSNLPTLQPPGSVDGLEMFGLLSPPIVQAIWARDRDHICTEYWRSRPHVLIEDPNNRHMLSQGPPLLALRGLIQRANRDELQVLRSLMTNSNNLDDSSRQQAAHIIEEEIAKQLC
Turning to B2, in the experiment on H3K4me1, the H3K4me1 demethylation activity result is “no”. The H3K4me3 demethylation activity result in the experiment on H3K4me3 is given as “yes”. Further, the H3K4me2 demethylation activity entry in the experiment on H3K4me2 is recorded as “no”.

B3: G376A: JMJ703 substitution mutant, methyl group-binding residue (protein, UniProt Q53WJ1 1-1238, looked up, variant G376A)
Lysine-specific demethylase …: MMGVTTTLNEDTEPSIPPGFGPFATLPLWGIHNDAKPAVTHSTPVQALQSIRKDSEECQPSAAVSRSDTPCSTSGTQTCRKSLRNRPPIDYSRFEHISDEDSDVEIVEKDVSSTRRRQQLPKGVLRGCAECSDCQKVIAKWNPAGARRPVLDEAPVFYPTEEEFEDTLKYIESIRPMAEPYGICRIVPPSSWKPPCLLKDKSIWEGSKFSTRVQKVDKLQNRKSSKKGRRGGMMKRRKLAESEENSATAHTQTGMQQSPERFGFEPGPEFTLQTFQKYADDFSKQYFRKDTSMDSVPSVEDIEGEYWRIVEVPTEEIEVIYGADLETGTFGSGFPKLSPETKSDAEDKYAQSGWNLNNLPRLQGSVLSFEGGDISAVLVPWVYVGMCFSSFCWHVEDHHLYSLNYMHWGAPKLWYGVPGKDAVNLESAMRKHLPELFEEQPDLLHNLVTQFSPSLLKSEGVHVYRCVQHEGEFVLTFPRAYHAGFNCGFNCAEAVNVAPIDWLPIGHNAVELYREQARKITISHDKLLLGAAREAIRAQWDILFLKRNTADNMRWKSICGADSTIFKALKARIETELVQRKTLGVPAQSRKMDAEFDSIDRECALCYYDLHLSASGCPCCPEKYACLVHAKQLCSCDWDKRFFLFRYDVNELNILADALGGKLSAIHRWGVSDLGLSLSSCVKREKVQDSKTVRRLTDGPRRSYMSQASAVSLVSSSTSNEQKDEGNKIMKIASPQTNNVCPSVEQRKSENISPLKEPCVRNELSCTTNSDSNGLQYNGGLGGHKGSAPGLPVSSSPSFSSNVATRPISTSSVSMKIVQGLVASKSCIQASSRTGDSRSLLGEHHNRSPAMIHDGTNMKSSLESSNNSCRLIASDYNATPCHSSKDQVLVTPGTNASVVTLKDSSQVHSASSQQFVRTGPWTQSASHEASSPSTSALKPSLDPPAMKNLYGGFTQGSAHPGPPSFSNQQPNDGRLQRTSESLPGVEARARGHPTVTAQPALEIHSRNGGAQKGPRIANVVHRFKCSVEPLEIGVVLSGRLWSSSQAIFPKGFRSRVKYFSIVDPIQMAYYISEILDAGMQGPLFMVKLENCPGEVFINLSPTKCWNMVRERLNMEIRRQLNMGKSNLPTLQPPGSVDGLEMFGLLSPPIVQAIWARDRDHICTEYWRSRPHVLIEDPNNRHMLSQGPPLLALRGLIQRANRDELQVLRSLMTNSNNLDDSSRQQAAHIIEEEIAKQLC
Turning to B3, in the experiment on H3K4me1, the H3K4me1 demethylation activity entry is “no”. Moreover, in the experiment with H3K4me3, the H3K4me3 demethylation activity entry was “no”. The H3K4me2 demethylation activity entry in the experiment with H3K4me2 is “no”.
